Test results as given in paper PMC2964165 (The EMBO Journal, 2010).

Target: recombinant Impβ (human, UniProt Q14974 1-876)
Experiment: pull-down

Sequence of recombinant Impβ (Q14974 whole entry): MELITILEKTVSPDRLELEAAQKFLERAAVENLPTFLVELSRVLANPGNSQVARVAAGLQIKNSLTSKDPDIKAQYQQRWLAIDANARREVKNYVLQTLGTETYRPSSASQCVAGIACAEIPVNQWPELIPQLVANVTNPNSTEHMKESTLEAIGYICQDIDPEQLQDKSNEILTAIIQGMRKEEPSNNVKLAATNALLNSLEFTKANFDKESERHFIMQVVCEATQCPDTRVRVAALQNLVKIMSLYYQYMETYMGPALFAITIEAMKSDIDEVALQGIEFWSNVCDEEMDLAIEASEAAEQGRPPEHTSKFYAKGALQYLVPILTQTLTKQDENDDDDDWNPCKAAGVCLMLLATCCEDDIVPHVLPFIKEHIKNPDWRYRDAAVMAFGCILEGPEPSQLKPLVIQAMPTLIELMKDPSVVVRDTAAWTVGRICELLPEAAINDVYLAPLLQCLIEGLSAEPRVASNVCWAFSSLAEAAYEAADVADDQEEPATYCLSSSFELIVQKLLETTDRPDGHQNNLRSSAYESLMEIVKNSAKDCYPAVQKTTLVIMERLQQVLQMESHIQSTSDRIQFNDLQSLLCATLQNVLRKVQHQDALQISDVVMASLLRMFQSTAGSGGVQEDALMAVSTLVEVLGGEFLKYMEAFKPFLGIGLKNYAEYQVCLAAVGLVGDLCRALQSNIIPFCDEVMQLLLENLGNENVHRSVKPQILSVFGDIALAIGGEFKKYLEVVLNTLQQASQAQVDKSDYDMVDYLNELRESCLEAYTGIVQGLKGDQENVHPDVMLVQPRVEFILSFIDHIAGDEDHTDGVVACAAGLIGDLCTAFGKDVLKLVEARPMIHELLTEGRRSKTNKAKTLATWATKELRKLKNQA

B1: IBB peptide (peptide)
peptide: not shown
**Q.** Does B1 bind?
**A.** binds
